Data from patent publication US20210275545A1 (YEDA RESEARCH AND DEVELOPMENT, published 2021).

T1: glucocorticoid receptor (GR), untagged (human, UniProt P04150 1-777)
T1 sequence (looked up): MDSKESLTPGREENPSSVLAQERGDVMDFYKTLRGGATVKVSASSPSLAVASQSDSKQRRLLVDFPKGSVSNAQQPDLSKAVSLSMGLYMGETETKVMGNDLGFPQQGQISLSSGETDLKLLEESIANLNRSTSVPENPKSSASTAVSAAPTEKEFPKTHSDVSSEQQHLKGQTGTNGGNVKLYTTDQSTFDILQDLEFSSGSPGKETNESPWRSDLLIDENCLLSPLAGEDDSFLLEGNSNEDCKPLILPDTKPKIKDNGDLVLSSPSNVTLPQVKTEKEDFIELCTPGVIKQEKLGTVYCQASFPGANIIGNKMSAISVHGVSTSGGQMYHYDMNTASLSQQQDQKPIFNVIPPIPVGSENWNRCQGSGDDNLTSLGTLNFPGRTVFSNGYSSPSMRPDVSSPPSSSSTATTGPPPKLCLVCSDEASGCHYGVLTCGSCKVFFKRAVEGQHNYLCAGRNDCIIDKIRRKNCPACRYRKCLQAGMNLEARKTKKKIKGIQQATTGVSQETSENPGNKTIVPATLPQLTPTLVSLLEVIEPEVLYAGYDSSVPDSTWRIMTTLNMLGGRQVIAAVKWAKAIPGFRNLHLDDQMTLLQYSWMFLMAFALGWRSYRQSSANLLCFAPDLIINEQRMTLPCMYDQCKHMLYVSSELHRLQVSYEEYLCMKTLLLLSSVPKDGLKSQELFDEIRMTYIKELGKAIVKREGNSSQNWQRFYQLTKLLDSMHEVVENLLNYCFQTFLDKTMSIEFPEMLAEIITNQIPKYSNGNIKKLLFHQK

T2: GR NTD+DBD-Gluc2 (NTD and DBD of GR fused to Gluc2) (human, UniProt P04150 1-486)
T2 construct: domain: NTD+DBD;range 94-169; not shown: Gaussia luciferase (Gluc), carboxyl-terminal fragment Gluc2, amino acids 94-169
T2 sequence (looked up): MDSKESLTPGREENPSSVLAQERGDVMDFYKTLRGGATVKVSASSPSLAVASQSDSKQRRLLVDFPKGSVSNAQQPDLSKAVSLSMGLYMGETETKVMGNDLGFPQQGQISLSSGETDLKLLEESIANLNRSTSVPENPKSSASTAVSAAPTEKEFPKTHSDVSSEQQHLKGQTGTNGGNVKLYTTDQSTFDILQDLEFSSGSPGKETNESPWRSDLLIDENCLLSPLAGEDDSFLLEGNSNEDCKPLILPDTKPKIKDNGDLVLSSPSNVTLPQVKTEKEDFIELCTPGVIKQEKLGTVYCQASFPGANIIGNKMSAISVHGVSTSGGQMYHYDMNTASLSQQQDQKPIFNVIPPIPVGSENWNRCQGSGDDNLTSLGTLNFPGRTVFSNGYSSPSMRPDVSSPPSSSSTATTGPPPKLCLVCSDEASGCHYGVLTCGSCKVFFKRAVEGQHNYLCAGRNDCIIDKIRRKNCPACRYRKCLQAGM

B1: ERα-Gluc2 (estrogen receptor alpha fused to Gluc2) (receptor, UniProt P03372 1-595, looked up)
chain: MTMTLHTKASGMALLHQIQGNELEPLNRPQLKIPLERPLGEVYLDSSKPAVYNYPEGAAYEFNAAAAANAQVYGQTGLPYGPGSEAAAFGSNGLGGFPPLNSVSPSPLMLLHPPPQLSPFLQPHGQQVPYYLENEPSGYTVREAGPPAFYRPNSDNRRQGGRERLASTNDKGSMAMESAKETRYCAVCNDYASGYHYGVWSCEGCKAFFKRSIQGHNDYMCPATNQCTIDKNRRKSCQACRLRKCYEVGMMKGGIRKDRRGGRMLKHKRQRDDGEGRGEVGSAGDMRAANLWPSPLMIKRSKKNSLALSLTADQMVSALLDAEPPILYSEYDPTRPFSEASMMGLLTNLADRELVHMINWAKRVPGFVDLTLHDQVHLLECAWLEILMIGLVWRSMEHPGKLLFAPNLLLDRNQGKCVEGMVEIFDMLLATSSRFRMMNLQGEEFVCLKSIILLNSGVYTFLSSTLKSLEEKDHIHRVLDKITDTLIHLMAKAGLTLQQQHQRLAQLLLILSHIRHMSNKGMEHLYSMKCKNVVPLYDLLLEMLDAHRLHAPTSRGGASVEETDQSHLATAGSTSSHSLQKYYITGEAEGFPATV
notes: not shown: Gaussia luciferase (Gluc), carboxyl-terminal fragment Gluc2, amino acids 94-169
B2: FLI1, untagged (other, UniProt Q01543 1-452, looked up)
chain: MDGTIKEALSVVSDDQSLFDSAYGAAAHLPKADMTASGSPDYGQPHKINPLPPQQEWINQPVRVNVKREYDHMNGSRESPVDCSVSKCSKLVGGGESNPMNYNSYMDEKNGPPPPNMTTNERRVIVPADPTLWTQEHVRQWLEWAIKEYSLMEIDTSFFQNMDGKELCKMNKEDFLRATTLYNTEVLLSHLSYLRESSLLAYNTTSHTDQSSRLSVKEDPSYDSVRRGAWGNNMNSGLNKSPPLGGAQTISKNTEQRPQPDPYQILGPTSSRLANPGSGQIQLWQFLLELLSDSANASCITWEGTNGEFKMTDPDEVARRWGERKSKPNMNYDKLSRALRYYYDKNIMTKVHGKRYAYKFDFHGIAQALQPHPTESSMYKYPSDISYMPSYHAHQQKVNFVPPHPSSMPVTSSSFFGAASQYWTSPTGGIYPNPNVPRHPNTHVPSHLGSYY
notes: Stands for endogenous FLI1 (HEK-293T, A673) in co-immunoprecipitation and PLA, and for FLI1 from an expression vector in the reporter assays; also called endogenous FLI1
B3: GR-Gluc2 (full-length glucocorticoid receptor fused at its carboxyl terminus to Gluc2) (receptor, UniProt P04150 1-777, looked up)
chain: T1 sequence (looked up)
notes: domain: full length;range 94-169; Expressed in HEK-293/HEK-293T cells by transfection; also called Gluc2-GR; not shown: Gaussia luciferase (Gluc), carboxyl-terminal fragment Gluc2, amino acids 94-169
B4: GR NTD-Gluc2 (NTD of GR fused to Gluc2) (other, UniProt P04150 1-420, looked up, not shown: large carriers)
chain: MDSKESLTPGREENPSSVLAQERGDVMDFYKTLRGGATVKVSASSPSLAVASQSDSKQRRLLVDFPKGSVSNAQQPDLSKAVSLSMGLYMGETETKVMGNDLGFPQQGQISLSSGETDLKLLEESIANLNRSTSVPENPKSSASTAVSAAPTEKEFPKTHSDVSSEQQHLKGQTGTNGGNVKLYTTDQSTFDILQDLEFSSGSPGKETNESPWRSDLLIDENCLLSPLAGEDDSFLLEGNSNEDCKPLILPDTKPKIKDNGDLVLSSPSNVTLPQVKTEKEDFIELCTPGVIKQEKLGTVYCQASFPGANIIGNKMSAISVHGVSTSGGQMYHYDMNTASLSQQQDQKPIFNVIPPIPVGSENWNRCQGSGDDNLTSLGTLNFPGRTVFSNGYSSPSMRPDVSSPPSSSSTATTGPPPKL
notes: domain: NTD;range 94-169

How the values were obtained:
[1] = biological target: T3, Gluc1-PU.1 (UniProt P17947-2 1-271); assay: PCA in HEK-293T cells, estradiol 10 nM 60 min (FIG. 8C)
T3 construct: not shown: Gaussia luciferase (Gluc), amino-terminal fragment Gluc1, amino acids 1-93
Method: (A) HEK-293T cells (6×10³) were seeded in 96-well plates. […] (B and C) HEK-293T cells (6×10³) were seeded in 96-well plates. […] Cells were then lysed and luminescence was determined.

[2] = biological target: T1, glucocorticoid receptor (GR), untagged; assay: cell-based or functional assay
[3] = biological target: T2, GR NTD+DBD-Gluc2 (NTD and DBD of GR …); assay: co-immunoprecipitation with anti-Gluc antibody, immunoblot for endogenous FLI1, HEK-293 cells (FIG. 3D)
Method: (§1) HEK-293T cells (6×10³) were seeded in each well of 96-well plates. […] Cells were lysed after 24 hours and processed for co-immunoprecipitation assays, in which the Gluc protein was immunoprecipitated using a specific antibody. […] Blots are representative of three or more biological replicates. […] Similarly, the input of recombinant proteins is shown in the middle panels of C and D. Both molecular weights and relative quantities of individual Gluc fusion proteins are shown by means of immunoblotting with an antibody to Gluc. Individual fusion proteins are identified by numbers and their molecular weights are calculated below each panel.

[4] = biological target: T3, Gluc1-PU.1; assay: PCA (split Gaussia luciferase) in HEK-293 cells, DEX 1.0 µM 60 min (FIG. 1B)
Text: EB, empty beads; C, solvent control. Images shown are representative of three biological replicates.
The resulting luminescence was normalized to the signal associated with cells treated with vehicle only.

[5] = biological target: B2; assay: co-immunoprecipitation with anti-Gluc antibody, immunoblot for endogenous FLI1, HEK-293 cells (FIG. 3D)
Method: as §1

Binder: B1
- binding result [1]: no binding

Binder: B2
- GRE activity, luciferase reporter (FIG. 4D) [2]: 17 fold
- GRE activity, luciferase reporter, endogenous GR with DEX (FIG. 4E) [2]: ~2 fold
- binding result [3]: no binding

Binder: B3
- binding result [4]: binds

Binder: B4
- binding result [5]: no binding
